Measurements from publication PMC7857026, “NbWRKY40 Positively Regulates the Response of Nicotiana benthamiana to Tomato Mosaic Virus via Salicylic Acid Signaling”.

Biological target: NbWRKY40 (GST fusion implied by GST control) (Nicotiana benthamiana, UniProt A0A7T1TE48 1-255)
Test: EMSA; LightShift Chemiluminescent EMSA Kit (Thermo Scientific), manufacturer's instructions; buffer, salt, pH and temperature not stated
Conditions: protein: recombinant; label: biotin (end label); blunt

NbWRKY40 (GST fusion implied by GST control), sequence (A0A7T1TE48 entry or part of it): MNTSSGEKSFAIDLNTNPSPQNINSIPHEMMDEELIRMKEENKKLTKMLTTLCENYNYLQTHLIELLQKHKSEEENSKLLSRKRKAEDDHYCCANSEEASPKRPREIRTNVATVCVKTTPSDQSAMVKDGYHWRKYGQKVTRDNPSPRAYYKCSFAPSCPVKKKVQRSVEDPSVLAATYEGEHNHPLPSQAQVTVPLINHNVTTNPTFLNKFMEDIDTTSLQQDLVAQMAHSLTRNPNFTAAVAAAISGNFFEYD

B1: NbICS1 promoter W-box fragment (84 bp) (dsDNA)
DNA 1: TAGTACAGAATATGAAGAAAGCTTTGCATATGGTGTTTATTGACCTAGAGAAAGTGTACATCAAGGTCCCTAGGGATGTCCTTT
DNA 2: AAAGGACATCCCTAGGGACCTTGATGTACACTTTCTCTAGGTCAATAAACACCATATGCAAAGCTTTCTTCATATTCTGTACTA
- binding result: binds
